The results in this text go back to the supplement of paper PMC9170038.

The data set deals with MS2 coat protein. The experiment in a line: apparent KD of MS2 coat protein; designed switch direction (-1 OFF switch, 1 ON switch): 1; higher = weaker reporter binding. Put shortly:
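SNAP-549-labelled MS2 coat protein was titrated, doubling from 0.7 or 1.5 nM to 3 µM, over designed RNA switches transcribed on Illumina chips by stalled E. coli RNA polymerase. Runs were done without input, with 200 uM small-molecule ligand, or with an oligonucleotide input. Apparent KD is the per-design median over clusters of curve-fitted normalised fluorescence.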

Where [1] appears, read: Eterna round: R95, input ligand: microRNA oligo, concentration not stated.
[2] abbreviates: Eterna round: R95, input ligand: FMN 200 uM.
[3] abbreviates: Eterna round: R95, input ligand: none.
Setting [4] is: input ligand: microRNA oligo, concentration not stated.

In the case of “GAGUUACAUGAGGAUCACCCAUGUUGUUUUGGAUAAGGAUAUAUGGUAGGAAGAGGAAUGAUAGAAGGUAUUAGGG [JR_SS1_Sub063] (puzzle: Same State 1)”, the “apparent KD of MS2 coat protein” value under setting [1] came out at 25.3 nM.

Regarding “GAUAGACAUGAGGAUCACCCAUGUGACAAAACCACAGGAUAUCACACAGGAGUAACUGCGUGAGAAGGGUGAGACU [Edatinti] (puzzle: Same State 1)”, the “apparent KD of MS2 coat protein” value under setting [2] came out at 109 nM, the “apparent KD of MS2 coat protein” value under setting [1] was determined as 13.4 nM and the “apparent KD of MS2 coat protein” value under setting [3] was 32.4 nM.

“GCACAUGCACAUGAGGAUCACCCAUGUCCCGCGCCCAUUAGGGCGCGGUGGCCGCAAGUUUUUUGCUCGUCUUAUAA [BIOPHYS241_ElaineNg_2] (puzzle: Sensor for hsa-mir-208a version 2)”: the “apparent KD of MS2 coat protein” value turned out to be 29.4 nM under setting [2], 21.3 nM under setting [1] and 38.8 nM under setting [3].

Take “GCAGGACGAUAAAACAUCUCACAUGAGGAUCACCCAUGUCGUGAGGAUAUGGAUCCUAAUUGGAUCCAGAAGGCAUGGUCCUGC [Fiskers NG3ss - 24] (Eterna round: R96, puzzle: Same State NG 3)”: the “apparent KD of MS2 coat protein” value is 13.2 nM (input ligand: FMN 200 uM), 13.1 nM under setting [4] and 20.9 nM (input ligand: none).

On to “GCAGGGCCGGGCCCUGCAGACAUGAGGAUCACCCAUGUAACACAGGAUAUGACUGGGAUACCUGGUUAGAAGGGUGCGAAAGAA [Ustivetice] (Eterna round: R96, puzzle: Same State NG 3)”, for which the “apparent KD of MS2 coat protein” value was determined as 299 nM (input ligand: FMN 200 uM), 645 nM under setting [4] and 57.4 nM (input ligand: none).

As for “GCCAACAUGAGGAUCACCCAUGUCCGGAAGUGAAUUCAAAGUGAGGAUAUGGAGAGACCGAAAAUCCAGAAGGCACGCACAUGC [Eternabot solution 10] (Eterna round: R96, puzzle: Same State NG 3)”, the “apparent KD of MS2 coat protein” value is, setting by setting: (input ligand: FMN 200 uM) 1500 nM; under setting [4], 475 nM; (input ligand: none) 1260 nM.

As to “GCCAACUUAUGAGGAUAUGGCACCUUAUUGGUGCCAGAAGGCAUGUCAAUUGACAUGAGGAUCACCCAUGUAUUAUAGUUGGCA [Fiskers NG1ss - 21] (Eterna round: R96, puzzle: Same State NG 1)”, the “apparent KD of MS2 coat protein” value under setting [4] was found to be 326 nM.

On to “GCCACACAUGAGGAUCACCCAUGUAAUUACAUGGGAGGAUAUCAGUGCUCGAAAGAGCACUGAGAAGGCCUGUGGC [SS1 - Omei A v3] (puzzle: Same State 1)”, for which the “apparent KD of MS2 coat protein” value reads like this: under setting [2], 134 nM; under setting [1], 89.6 nM; under setting [3], 67.8 nM.

As to “GCCAUCCAGUGAGGAUAUGGCACCGAAACGGUGCCAGAAGGCAUGUCAAUUGACAUGAGGAUCACCCAUGUAUUAUGGAUGGCA [Mat - Same State NG 1 - JL mod - D85] (Eterna round: R96, puzzle: Same State NG 1)”, the “apparent KD of MS2 coat protein” value came to 102 nM (input ligand: FMN 200 uM), 694 nM under setting [4] and 695 nM (input ligand: none).

Regarding “GCCAUCGCAUGAGGAUAUGGCACCGUUUCGGUGCCAGAAGGCAUGUCAAUUGACAUGAGGAUCACCCAUGUAUUAUUGAUGGCA [JL Fiskers NG1ss - 33 mod 7] (Eterna round: R96, puzzle: Same State NG 1)”, the “apparent KD of MS2 coat protein” value reads like this: (input ligand: FMN 200 uM) 55.6 nM; under setting [4], 448 nM; (input ligand: none) 860 nM.

In the case of “GCCAUCGCAUGAGGAUAUGGCACCGUUUCGGUGCCAGAAGGCAUGUCAUAAGACAUGAGGAUCACCCAUGUAGUUAAGAUGGCA [JL Fiskers NG1ss - 33 mod 8] (Eterna round: R96, puzzle: Same State NG 1)”, the “apparent KD of MS2 coat protein” value is, setting by setting: (input ligand: FMN 200 uM) 31.4 nM; under setting [4], 521 nM; (input ligand: none) 751 nM.

In the case of “GCCAUCGUAUGAGGAUAUGGCACCGAAACGGUGCCAGAAGGCAUGUCAAUAGACAUGAGGAUCACCCAUGUAUUAUCGAUGGCA [Mat - Same State NG 1 - JL mod - D90] (Eterna round: R96, puzzle: Same State NG 1)”, the “apparent KD of MS2 coat protein” value under setting [4] is 278 nM.

With “GCCGGACAUGAGGAUCACCCAUGUCCUCACUAUACAGGAUAUCGGGUAGGAUCCCUACGGCGAGAAGGGUAUAAAA [Inarquat] (puzzle: Same State 1)”, the “apparent KD of MS2 coat protein” value was 34.2 nM under setting [2], 32.2 nM under setting [1] and 22.1 nM under setting [3].

“GCGAAAGCGGUAGGAUAUCUAGGAUAUGGGAAGGACUAAGUCUGGAGGUCACCUCACCCAGAAGGAGAGAAGGACACCGAAAGG [pwkr ssNG2 2FMN + F9.1] (Eterna round: R96, puzzle: Same State NG 2)”: the “apparent KD of MS2 coat protein” value by setting is: (input ligand: FMN 200 uM) 534 nM; under setting [4], 204 nM; (input ligand: none) 42.6 nM.

“GCGAAGAGGUAAGGAUAUGCAUGGCGUAGACAUGAGGAUCACCCAUGUAGGAGACGAAUUAGAAGGGAGAAGGUACCAGGACGC [AK SSNG2-V2-17.1] (Eterna round: R96, puzzle: Same State NG 2)”: the “apparent KD of MS2 coat protein” value runs as follows: (input ligand: FMN 200 uM) 939 nM; under setting [4], 699 nM; (input ligand: none) 746 nM.

For the sequence “GCGGAACCUGACAUGAGGAUCACCCAUGUUCCGGAAACGGCACAGGAUAUCUGUCCGAAAAGGUCAGAGAAGGGUGAAAACCGC [Fiskers NG3ss - 96] (Eterna round: R96, puzzle: Same State NG 3)”, the “apparent KD of MS2 coat protein” value came out at 269 nM (input ligand: FMN 200 uM), 714 nM under setting [4] and 719 nM (input ligand: none).

In the case of “GCGUUUAACGUAGGAUAUCGACCUACAUGAGGAUCACCCAUGUCUUUGUAAAGUUUUUUUAAUUACGAGAAGGACGUUUUGCAU [JR_SSNG2_Sub071] (Eterna round: R96, puzzle: Same State NG 2)”, the “apparent KD of MS2 coat protein” value is, setting by setting: (input ligand: FMN 200 uM) 40.3 nM; under setting [4], 89.6 nM; (input ligand: none) 107 nM.

Regarding “GCUACCAUUGAAGCCAACAUGAGGAUCACCCAUGUAUGUUGGUAGGAUAUCGUUUGCAAAGCAAACGAGAAGGGCUAAGGUAGC [Mat - Same State NG 3 - JL Mod - D79] (Eterna round: R96, puzzle: Same State NG 3)”, the “apparent KD of MS2 coat protein” value amounted to 83.5 nM (input ligand: FMN 200 uM), 42.1 nM under setting [4] and 74.4 nM (input ligand: none).

Take “GCUACGGACGUAGGAUAUGUAGGAUAUGGCGAGAGCUAAGCUUGGAAGUCACUUCAGCCAGAAGGACAGAAGGACGCCGUGAGG [pwkr ssNG2 2FMN + F9.17] (Eterna round: R96, puzzle: Same State NG 2)”: the “apparent KD of MS2 coat protein” value is, setting by setting: (input ligand: FMN 200 uM) 355 nM; under setting [4], 1.34 nM; (input ligand: none) 29.5 nM.

On to “GCUAGAAAUAAAGCCAACAUGAGGAUCACCCAUGUAUGUUGGUAGGAUAUCGUAUGCAAAGCAUACGAGAAGGGCCAAACUAGC [Mat - Same State NG 3 - JL Mod - D21] (Eterna round: R96, puzzle: Same State NG 3)”, for which the “apparent KD of MS2 coat protein” value (input ligand: FMN 200 uM) was 72.3 nM, the “apparent KD of MS2 coat protein” value under setting [4] was found to be 65.4 nM and the “apparent KD of MS2 coat protein” value (input ligand: none) was 122 nM.
